Test results: patent publication US20130116185A1, “PHOSPHATIDYLINOSITOL 3-KINASES ACTIVITY REGULATOR INCLUDING THE FIFTH ZINC FINGER DOMAIN OF FOG2” (SNU R&DB FOUNDATION, priority 2010, published 2013)

Tested on: MDA MB 231 cells
Assay: Apoptosis by FACS analysis (propidium iodide) in MDA MB 231 cells
Assay type: cell-based
Details: transfected with 1 μg FOG2 fragment, 2 days, FIG. 7A
Experimental: PI3K inactivation has been reported to cause cancer cell apoptosis, and FOG2 is known to inhibit the PI3K activity. To test whether PI3K inactivation by overexpressing FOG2 induces apoptosis, MDA MB 231 cells overexpressed FOG2 were analyzed with FACS.
MDA MB 231 cells were incubated with Full-FOG2[1-1151], FOG2[1-412], FOG2[413-789] or FOG2[802-1151]. The cells (5×10^4) were seeded in a 12-well plate and transfected with 1 μg of Full-FOG2[1-1151], FOG2[1-412], FOG2[413-789] or FOG2[802-1151] using Lipofectamine 2000. The cells were incubated at 37° C. for 2 days and subject to FACS analysis.
The cells were incubated with FOG2 fragments and fixed with 70% ethanol for 16 hr. The fixed cells were stained using RNase (5 mg/ml) and propidium iodide ([…]). The amount of DNA in stained cells was analyzed with Cell Quest program of FACS caliber (Becton Dickinson).

| Molecule | number of apoptotic cells |
| --- | --- |
| FOG2[1-412]: Truncated FOG2 mutant in pCK-flag vector, residues 1-412 (protein, UniProt Q8WW38 1-412, looked up, fragment, FLAG tag) MSRRKQSKPRQIKRPLEDAIEDEEEECPSEETDIISKGDFPLEESFSTEFGPENLSCEEVEYFCNKGDDEGIQETAESDGDTQSEKPGQPGVETDDWDGPGELEVFQKDGERKIQSRQQLPVGTTWGPFPGKMDLNNNSLKTKAQVPMVLTAGPKWLLDVTWQGVEDNKNNCIVYSKGGQLWCTTTKAISEGEELIAFVVDFDSRLQAASQMTLTEGMYPARLLDSIQLLPQQAAMASILPTAIVNKDIFPCKSCGIWYRSERNLQAHLMYYCSGRQREAAPVSEENEDSAHQISSLCPFPQCTKSFSNARALEMHLNSHSGVKMEEFLPPGASLKCTVCSYTADSVINFHQHLFSHLTQAAFRCNHCHFGFQTQRELLQHQELHVPSGKLPRESDMEHSPSATEDSLQPAT | reduces the apoptosis |
| FOG2[413-789]: The FOG2 protein comprising the amino acid sequence ranging 413-789th amino acid residues of FOG2 full-length amino acid sequence (protein, UniProt Q8WW38 413-789, looked up, fragment) DLLTRSELPQSQKAMQTKDASSDTELDKCEKKTQLFLTNQRPEIQPTTNKQSFSYTKIKSEPSSPRLASSPVQPNIGPSFPVGPFLSQFSFPQDITMVPQASEILAKMSELVHRRLRHGSSSYPPVIYSPLMPKGATCFECNITFNNLDNYLVHKKHYCSSRWQQMAKSPEFPSVSEKMPEALSPNTGQTSINLLNPAAHSADPENPLLQTSCINSSTVLDLIGPNGKGHDKDFSTQTKKLSTSSNNDDKINGKPVDVKNPSVPLVDGESDPNKTTCEACNITFSRHETYMVHKQYYCATRHDPPLKRSASNKVPAMQRTMRTRKRRKMYEMCLPEQEQRPPLVQQRFLDVANLNNPCTSTQEPTEGLGECYHPRCD | increased |
